Biological target: C3b (human) (UniProt P01024)
Assay: SPR; Biacore T200; about 2488 RU of C3b immobilised by amine coupling on a CM5 chip; CFHR3 injected in duplicate at 10-300 ug/ml; 25 °C, 30 ul/min; 10 mM Hepes-buffered saline, 3 mM ENTA (so in the source), 0.05% surfactant p20; wild type: KD from rate constants, mutant: steady-state affinity fit

Substance | Kd [µM] | koff [s⁻¹] | kon [M⁻¹ s⁻¹]
mutant recombinant CFHR3 Arg142Cys (rs61737525, c.424 C > T) (from UniProt Q02985 19-330) (natural protein) | 18 | – | –
wild-type recombinant CFHR3 (complement factor H-related protein 3) (from UniProt Q02985 19-330) (natural protein) | 0.15 | 0.00128 | 8350

Reference: article PMC5519609
